What was measured:
[1] = biological target: HLA-DR antigen on the surface of HLA-DR positive cells (tumor cell lines other than PRIESS and LG-2, normal B cells, or cell line not stated) (human); assay: cell-based or functional assay
[2] = biological target: HLA-DR on the human B-lymphoblastoid cell line LG-2 (human); assay: cell-based or functional assay
[3] = biological target: HLA-DR (allotype and form not stated); assay: not stated (Z. A. Nagy, unpublished)

murine anti-HLA-DR antibody L243, sequence (VH): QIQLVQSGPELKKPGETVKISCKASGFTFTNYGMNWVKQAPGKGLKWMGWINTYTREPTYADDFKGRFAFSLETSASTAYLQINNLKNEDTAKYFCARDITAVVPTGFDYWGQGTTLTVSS
murine anti-HLA-DR antibody L243, sequence (VL): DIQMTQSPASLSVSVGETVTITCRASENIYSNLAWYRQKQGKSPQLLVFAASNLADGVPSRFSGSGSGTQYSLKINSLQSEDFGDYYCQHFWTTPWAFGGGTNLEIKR

murine anti-HLA-DR antibody L243
% killing of ARH-77 cells (DR 12), 200 nM, 4 h [1]: 88% | % killing of BJAB cells (DR 12, 13), 200 nM, 4 h [1]: 53% | % killing of BONNA-12 cells, 200 nM, 4 h [1]: 92% | % killing of DOHH-2 cells (DR 1, 2), 200 nM, 4 h [1]: 29% | % killing of EOL-1 cells, 200 nM, 4 h [1]: 22% | % killing of GRANTA-519 cells (DR 2, 11), 200 nM, 4 h [1]: 83% | % killing of HC-1 cells, 200 nM, 4 h [1]: 88% | % killing of HD-MY-Z cells, 200 nM, 4 h [1]: 35% | % killing of HDLM-2 cells, 200 nM, 4 h [1]: 77% | % killing of KARPAS-299 cells (DR 1, 2), 200 nM, 4 h [1]: 78% | % killing of KARPAS-422 cells (DR 2, 4), 200 nM, 4 h [1]: 25% | % killing of KM-H2 cells, 200 nM, 4 h [1]: 81% | % killing of L1236 cells, 200 nM, 4 h [1]: 52% | % killing of L-363 cells, 200 nM, 4 h [1]: 6% | % killing of L-428 cells (DR 12), 200 nM, 4 h [1]: 82% | % killing of LP-1 cells, 200 nM, 4 h [1]: 12% | % killing of MHH-CALL-4 cells (DR 1, 2), 200 nM, 4 h [1]: 35% | % killing of MHH-PREB-1 cells, 200 nM, 4 h [1]: 3% | % killing of MN-60 cells (DR 10, 13), 200 nM, 4 h [1]: 46% | % killing of NALM-1 cells (DR 1, 4), 200 nM, 4 h [1]: 44% | % killing of RAJI cells (DR 10, 17), 200 nM, 4 h [1]: 69% | % killing of RPMI-8226 cells, 200 nM, 4 h [1]: 6% | % killing of SR-786 cells (DR 1, 2), 200 nM, 4 h [1]: 3% | % killing of LG-2 cells, 200 nM, 4 h [2]: 79% | Kd [3]: 10 nM
